The target of one assay is CD32A^H (UniProt P12318). Kind of assay: SPR (BIACORE); koff compared with wild-type Fc.
In assay [1] the target is soluble human FcγRIIB (human) (UniProt P31994). Kind of assay: SPR (BIACORE); koff compared with wild-type Fc. On the technique in general: In SPR one partner is held on a chip, and binding of the other changes the refractive index at the surface.
The target in assay [2] is soluble human FcγRIIIA V158 (human) (UniProt P08637). Nature of the assay: SPR (BIACORE); koff compared with wild-type Fc.
The target in assay [3] is soluble human FcγRIIIA F158 (human) (UniProt P08637). Nature of the assay: SPR (BIACORE); koff compared with wild-type Fc.
Assay [4] has as its target soluble human FcRn (human) (UniProt P55899). Nature of the assay: SPR (Biacore 3000); ch4420 captured on protein-FITC surface; 500 nM hFcRn injected; pH 6.0.
UniProt P55899, sequence (P55899 24-297 limits assumed, chain 1 of 2): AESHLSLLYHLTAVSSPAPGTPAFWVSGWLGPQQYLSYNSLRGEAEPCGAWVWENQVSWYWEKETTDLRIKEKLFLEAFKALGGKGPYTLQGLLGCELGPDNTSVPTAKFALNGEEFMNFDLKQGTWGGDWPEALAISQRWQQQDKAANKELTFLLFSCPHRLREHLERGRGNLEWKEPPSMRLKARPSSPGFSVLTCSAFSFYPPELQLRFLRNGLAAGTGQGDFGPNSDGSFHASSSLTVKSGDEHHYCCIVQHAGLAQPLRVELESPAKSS
UniProt P55899, sequence (P61769 21-119 limits assumed, chain 2 of 2, further chain): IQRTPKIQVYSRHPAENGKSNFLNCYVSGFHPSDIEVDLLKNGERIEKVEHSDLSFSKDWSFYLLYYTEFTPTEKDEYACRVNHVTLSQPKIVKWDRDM

Results on 19 substances are retold here after US20190010243A1.

UniProt P12318, sequence (P12318 34-217 limits assumed): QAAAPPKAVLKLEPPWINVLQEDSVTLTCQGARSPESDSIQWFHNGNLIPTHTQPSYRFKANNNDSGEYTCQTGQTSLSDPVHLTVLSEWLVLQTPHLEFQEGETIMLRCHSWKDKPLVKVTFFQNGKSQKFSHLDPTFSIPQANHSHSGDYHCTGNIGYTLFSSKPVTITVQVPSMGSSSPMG
UniProt P31994, sequence (P31994 43-217 limits assumed): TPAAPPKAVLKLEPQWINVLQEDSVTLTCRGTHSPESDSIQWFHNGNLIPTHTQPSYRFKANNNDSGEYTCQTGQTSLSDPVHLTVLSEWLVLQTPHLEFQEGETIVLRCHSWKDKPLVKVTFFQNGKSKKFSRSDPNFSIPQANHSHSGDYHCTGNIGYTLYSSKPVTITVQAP

For Fc mutant 1 (F243L), the ratio WT koff/mutant koff with CD32A^H was 0.6 fold; in assay [1] it was 0.8 fold; in assay [2], 4.8 fold.
For Fc mutant 2 (D270E), the ratio WT koff/mutant koff in the assay with CD32A^H is 2.2 fold; in assay [1], 0.4 fold; in assay [2] it was 1.3 fold.
For the substance Fc mutant 3 (R292P), the ratio WT koff/mutant koff was determined as 0.7 fold with CD32A^H, 0.3 fold in assay [1], 2.4 fold in assay [2] and 1.6 fold in assay [3].
Turning to Fc mutant 4 (S298N), in assay [1], the ratio WT koff/mutant koff came out at 0.2 fold.
On to Fc mutant 5 (Y300L), for which the ratio WT koff/mutant koff in the assay with CD32A^H turned out to be 2.9 fold; in assay [1], 1.2 fold; in assay [3], 1.2 fold.
Consider Fc mutant 6 (V305I), for which the ratio WT koff/mutant koff is 1.3 fold with CD32A^H, 1.2 fold in assay [1], 0.9 fold in assay [2] and 0.6 fold in assay [3].
For Fc mutant 7 (A330V) the same measures were 0.4 fold, 0.3 fold, 0.6 fold and 1.2 fold.
Turning to Fc mutant 8 (P396L), the ratio WT koff/mutant koff in the assay with CD32A^H was 1.6 fold; in assay [1] it was 2.6 fold; in assay [2], 1.3 fold.
Take Fc mutant 9 (F243L P396L): the ratio WT koff/mutant koff is 1.5 fold with CD32A^H and 1.6 fold in assay [1].
On to Fc mutant 10 (F243L R292P), for which the ratio WT koff/mutant koff turned out to be 0.5 fold with CD32A^H, 0.2 fold in assay [1] and 4 fold in assay [2].
For Fc mutant 11 (R292P V305I), the results for the ratio WT koff/mutant koff (with CD32A^H; in assay [1]) were 0.8 fold and 0.4 fold, respectively.
With Fc mutant 12 (F243L R292P Y300L), the ratio WT koff/mutant koff with CD32A^H is 1 fold; in assay [1] it was 0.6 fold; in assay [2], 7.4 fold; in assay [3], 4.6 fold.
For Fc mutant 13 (F243L R292P V305I) the same measures were 0.2 fold, 0.1 fold, 2.6 fold and 1.4 fold.
On to Fc mutant 14 (F243L R292P P396L), for which the ratio WT koff/mutant koff with CD32A^H was 1.4 fold; in assay [1], 0.4 fold; in assay [2], 6.3 fold.
Consider Fc mutant 15 (R292P V305I P396L), for which the ratio WT koff/mutant koff with CD32A^H stood at 1.5 fold; in assay [1] it was 0.9 fold; in assay [2], 1.9 fold; in assay [3], 1.9 fold.
In the case of Fc mutant 16 (F243L R292P Y300L P396L), the ratio WT koff/mutant koff with CD32A^H is 1.7 fold; in assay [1] it was 1.1 fold; in assay [2], 10.1 fold; in assay [3] it was 5.6 fold.
Fc mutant 17 (F243L R292P V305I P396L): the ratio WT koff/mutant koff in the assay with CD32A^H was determined as 0.8 fold; in assay [1], 0.4 fold; in assay [2], 4 fold; in assay [3], 2.3 fold.
The like results for “Fc mutant 18 (F243L R292P Y300L V305I P396L)” were, in that order, 3.2 fold, 1.4 fold, 10.1 fold and 8.3 fold.
Take ch4420 variant H435K (antibody): the fold increase of binding response over wild type in assay [4] is under 4 fold.
